Results published in US20180022819A1 (published 2018).

Assays:
[1] = target: T1, prostate-specific membrane antigen (PSMA) (human, UniProt Q04609 1-750); test: flow cytometry binding, 22Rv1 cells; 1 wk enza
[2] = target: T1, prostate-specific membrane antigen …; test: flow cytometry binding, 22Rv1 cells; 3 wk enza
[3] = target: T1, prostate-specific membrane antigen …; test: flow cytometry binding, 22Rv1 cells; 2 wk enza
[4] = target: T1, prostate-specific membrane antigen …; test: flow cytometry binding, 22Rv1 cells; 0 enza (untreated)

T1 sequence (Q04609 whole entry): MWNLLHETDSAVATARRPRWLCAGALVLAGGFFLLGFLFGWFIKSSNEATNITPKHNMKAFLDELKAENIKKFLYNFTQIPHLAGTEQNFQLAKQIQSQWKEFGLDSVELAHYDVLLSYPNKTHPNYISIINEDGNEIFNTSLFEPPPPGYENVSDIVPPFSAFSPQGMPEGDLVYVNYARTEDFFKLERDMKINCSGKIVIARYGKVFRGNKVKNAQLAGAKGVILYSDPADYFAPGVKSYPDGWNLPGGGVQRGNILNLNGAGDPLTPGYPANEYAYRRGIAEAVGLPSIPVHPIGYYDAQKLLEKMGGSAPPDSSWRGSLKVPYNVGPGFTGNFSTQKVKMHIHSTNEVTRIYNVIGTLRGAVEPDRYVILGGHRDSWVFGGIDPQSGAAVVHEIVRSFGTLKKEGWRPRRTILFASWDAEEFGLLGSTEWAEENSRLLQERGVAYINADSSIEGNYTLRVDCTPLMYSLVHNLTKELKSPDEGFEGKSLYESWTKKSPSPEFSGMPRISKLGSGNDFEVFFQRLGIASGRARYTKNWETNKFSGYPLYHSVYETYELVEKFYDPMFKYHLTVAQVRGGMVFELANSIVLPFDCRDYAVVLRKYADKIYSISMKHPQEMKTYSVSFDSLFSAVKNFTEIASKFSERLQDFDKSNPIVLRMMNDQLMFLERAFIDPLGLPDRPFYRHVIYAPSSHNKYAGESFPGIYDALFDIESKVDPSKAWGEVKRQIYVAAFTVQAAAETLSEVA

B1: FITC-labeled anti-PSMA monoclonal antibody 107-1A4 (Acris) (antibody, V domains shown)
VH: EIQLQQSGPELVKPGASVKMSCKASGYTFTDYYMHWVKQNNGESLEWIGYFNPYNDYTRYNQNFNGKATLTVDKSSSTAYMQLNSLTSEDSAFYYCARSDGYYDAMDYWGQGTSVTVSS
VL: DVQITQSPSYLAASPGETITINCRASKSISKYLAWYQEKPGKANKLLIHSGSTLQSGIPSRFSGSGSGTDFTLTISSLEPEDFAMYYCQQHIEYPWTFGGGTKLEIKR
Binder B1 has an EC50 [1] of 2.3 nM, an EC50 [2] of 2.7 nM and an EC50 [3] of 2.5 nM. It also gave an EC50 [4] of 2.2 nM.
